Experiments:
LepFNR [1] = molecular target: T1, LepFNR (Leptospira interrogans, UniProt Q8EY89); assay: X-ray crystal structure, […] Å; format: binding; settings: noncovalently bound prosthetic group, extended conformation
T1 construct: gene LA_4327; expressed in E. coli (pET32JO-LepFNR) as thioredoxin fusion, thioredoxin removed with thrombin; FAD holoenzyme; C-terminal residue Tyr314

P. sativum FNR = molecular target: T2, P. sativum FNR (Lathyrus oleraceus, UniProt P10933); assay: difference absorption spectroscopy titration; format: binding; settings: read-out: Kd (μM, NADP^+)
T2 construct: gene PETH; plastidic enzyme
T2 sequence (P10933 53-360): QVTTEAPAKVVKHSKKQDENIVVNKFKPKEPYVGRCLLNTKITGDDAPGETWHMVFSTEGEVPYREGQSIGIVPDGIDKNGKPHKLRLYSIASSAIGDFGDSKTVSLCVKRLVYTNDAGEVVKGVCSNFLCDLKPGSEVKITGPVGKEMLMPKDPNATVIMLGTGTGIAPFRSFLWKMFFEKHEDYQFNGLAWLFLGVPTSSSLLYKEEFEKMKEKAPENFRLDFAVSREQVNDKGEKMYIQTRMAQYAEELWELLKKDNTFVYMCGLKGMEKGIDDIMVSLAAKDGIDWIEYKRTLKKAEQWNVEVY
Description: difference absorption spectroscopy titration on P. sativum FNR

LepFNR [2] = molecular target: T1, LepFNR; assay: difference absorption spectroscopy titration; format: binding
Description: difference absorption spectroscopy titration on LepFNR

[3] = system: NC(=O)C1=CN([C@@H]2O[C@H](COP(=O)(O)OP(=O)(O)OC[C@H]3O[C@@H](n4cnc5c(N)ncnc54)[C@H](OP(=O)(O)O)[C@@H]3O)[C@@H](O)[C@H]2O)C=CC1; assay: purified protein; settings: 1 mM potassium ferricyanide, NADPH regenerated with glucose-6-phosphate dehydrogenase, 50 mM Tris-HCl, pH 8, 30°C
purified protein = substrate: NC(=O)C1=CN([C@@H]2O[C@H](COP(=O)(O)OP(=O)(O)OC[C@H]3O[C@@H](n4cnc5c(N)ncnc54)[C@H](OP(=O)(O)O)[C@@H]3O)[C@@H](O)[C@H]2O)C=CC1; assay: purified protein; format: biochemical, Lathyrus oleraceus; settings: 1 mM potassium ferricyanide, NADPH regenerated with glucose-6-phosphate dehydrogenase, 50 mM Tris-HCl, pH 8, 30°C

T1 sequence (Q8EY89 entry or part of it): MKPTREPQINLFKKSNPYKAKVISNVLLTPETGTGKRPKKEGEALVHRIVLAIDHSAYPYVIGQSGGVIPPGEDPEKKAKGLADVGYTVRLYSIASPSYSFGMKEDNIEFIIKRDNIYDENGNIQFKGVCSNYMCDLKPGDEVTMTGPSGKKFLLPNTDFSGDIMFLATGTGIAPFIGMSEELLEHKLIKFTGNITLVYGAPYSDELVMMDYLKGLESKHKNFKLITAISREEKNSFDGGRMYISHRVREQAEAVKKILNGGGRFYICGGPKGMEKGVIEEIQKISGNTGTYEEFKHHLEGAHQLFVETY

Cc1cc2nc3c(=O)[nH]c(=O)nc-3n(C[C@H](O)[C@H](O)[C@H](O)COP(=O)(O)OP(=O)(O)OC[C@H]3O[C@@H](n4cnc5c(N)ncnc54)[C@H](O)[C@@H]3O)c2cc1C [FAD]
X-ray crystal structure, 2.43 Å (LepFNR [1]): LepFNR accommodates the FAD molecule in an extended conformation between the two enzyme domains

NC(=O)c1ccc[n+]([C@@H]2O[C@H](COP(=O)(O)OP(=O)(O)OC[C@H]3O[C@@H](n4cnc5c(N)ncnc54)[C@H](OP(=O)(O)O)[C@@H]3O)[C@@H](O)[C@H]2O)c1 [NADP^+]
Kd (P. sativum FNR): 32 ± 2 µM | Kd (LepFNR [2]): 43 ± 3 µM

LepFNR (Leptospira interrogans serovar Lai str. 56601)
Km [3]: 19.5 ± 1.7 µM | kcat [3]: 258 ± 13 s⁻¹ | kcat/Km [3]: 1.32e+07 M⁻¹ s⁻¹

B1: P. sativum FNR (Lathyrus oleraceus) (protein)
chain: QVTTEAPAKVVKHSKKQDENIVVNKFKPKEPYVGRCLLNTKITGDDAPGETWHMVFSTEGEVPYREGQSIGIVPDGIDKNGKPHKLRLYSIASSAIGDFGDSKTVSLCVKRLVYTNDAGEVVKGVCSNFLCDLKPGSEVKITGPVGKEMLMPKDPNATVIMLGTGTGIAPFRSFLWKMFFEKHEDYQFNGLAWLFLGVPTSSSLLYKEEFEKMKEKAPENFRLDFAVSREQVNDKGEKMYIQTRMAQYAEELWELLKKDNTFVYMCGLKGMEKGIDDIMVSLAAKDGIDWIEYKRTLKKAEQWNVEVY
notes: plastidic enzyme
Km (purified protein): 19.0 ± 1.6 µM | kcat (purified protein): 324 ± 16 s⁻¹ | kcat/Km (purified protein): 1.71e+07 M⁻¹ s⁻¹
